# Laboratory results: US20250257130A1 (NONA BIOSCIENCES SUZHOU, published 2025)
# Columns and labels:
# [1] = biological target: T1, cynomolgus ROR1 on CHO-K1-cynoROR1 cells (cynomolgus monkey, UniProt A0A2K5WTX7 30-937); assay: flow cytometry, CHO-K1-cynoROR1 cells
# T1 construct: whole, on cells
# Procedure: (§1) Binding of recombinant anti-ROR1 antibodies to human or cynomolgus ROR1-overexpressing cells was tested by flow cytometry. In this example, ROR1-expressing cell lines are HEK293T cell lines that had been transfected to express human ROR1 on the surface (HEK293T-hu ROR1, KYINNO BIOTECHNOLOGY CO., LTD, Catalog #KC-1018), CHO-K1 cell lines that had been transfected to express cynomolgus ROR1 (CHOK1-cyno ROR1), PANC-1 (ATCC, catalog: CRL-1469) or A549 cell lines (Shanghai Institute of Biochemistry and Cell Biology, Chinese Academy of Sciences).
# (§2) In brief, anti-ROR1 antibodies were serially diluted in staining buffer (PBS containing 2% FBS). Antibody solution was incubated with 1×10⁵ cells at 4° C. for 1 hour. […] After 1-hour incubation at 4° C., cells were washed twice with staining buffer and subjected to flow cytometry. PR000374 (Bench marker 1) and non-relevant IgG isotype control (Crownbio) were used as positive and negative controls, respectively.
# [2] = biological target: T2, human ROR1 on cells (HEK293T-hROR1, PANC-1, A549) (human, UniProt Q01973 30-937); assay: flow cytometry on PANC-1 cells, MFI (APC-A Median)
# T2 construct: whole, on cells; one molecule for the three cell lines; also called huROR1; cell surface ROR1
# Procedure: as §1, §2
# [3] = biological target: T1, cynomolgus ROR1 on CHO-K1-cynoROR1 cells; assay: flow cytometry on CHOK1-cynoROR1 cells, MFI (APC-A Median) [top panel]
# Procedure: as §1, §2
# [4] = biological target: T2, human ROR1 on cells (HEK293T-hROR1, …); assay: flow cytometry, PANC-1 cells
# Procedure: as §2
# [5] = biological target: T3, Human ROR1-ECD-his (Acro Biosystems RO1-H522y) (human, UniProt Q01973 30-406); assay: ELISA, coated hu-ROR1-ECD-his
# T3 construct: extracellular domain; bought protein; also called hROR1-ECD-his; hu-ROR1-ECD-his
# Procedure: (§3) Binding of recombinant anti-ROR1 antibodies to hu-ROR1-ECD-his was tested by ELISA. In brief, 1 μg/mL hu-ROR1-ECD-his was added to the 96-well plate, 100 μL each well, incubated at 4° C. overnight, washing the plates with 1×PBST 3 times, 300 ul/well, blocking the plates with 2% BSA in 1×PBST, 200 ul/well at 37° C. for 1 hour, anti-ROR1 antibodies were serially diluted in staining buffer (PBS containing 2% BSA). Antibody solution was added to the plate and incubates at 37° C. for 1 hour, washing the plates with 1×PBST 3 times, 300 ul/well, adding secondary antibody 100 ul/well and incubate at 37° C. for 1 hour, washing the plates with 1×PBST 3 times, 300 ul/well and then add 100 ul/well TMB for about 5 min, stop the reaction by adding 100 ul/well 2M H₂SO₄, read the plates with Molecular device spectra max plus384 at 450 nm and 570 nm.
# [6] = biological target: T2, human ROR1 on cells (HEK293T-hROR1, …); assay: flow cytometry, A549 cells
# Procedure: as §2
# [7] = biological target: T4, hu-ROR2-ECD-his (Acrobiosystems RO2-H52E5) (human, UniProt Q01974 34-403); assay: ELISA, plate coated with hu-ROR2-his at 1 µg/mL
# T4 construct: extracellular domain; bought protein; also called Human ROR2 his-tagged protein; Human ROR2, His Tag
# Procedure: as §3, with “1” for “Binding of recombinant anti-ROR1 antibodies to hu-ROR1-ECD-his was tested by ELISA. In brief, 1”, “hu-ROR2-ECD-his (Acrobiocystems, RO2-H52E5)” for “hu-ROR1-ECD-his”
# [8] = biological target: T1, cynomolgus ROR1 on CHO-K1-cynoROR1 cells; assay: flow cytometry, CHO-K1-cynoROR1 cells; remark: listed apart in the source
# Procedure: as §2
# [9] = biological target: T3, Human ROR1-ECD-his (Acro Biosystems …); assay: BLI, ROR1-His on HIS1K sensor, antibody in solution
# Procedure: In the example, binding kinetics of anti-ROR1 antibodies to soluble ROR1 protein were analyzed by using Bio-Layer Interferometry (BLI) analysis on Fortebio Octet Red384 instrument (Fortebio).
# In BLI analysis, recombinant anti-ROR1 antibodies was serially diluted with 10× kinetics buffer (Fortebio). Human ROR1-His proteins were diluted to 20 nM. Then the diluted antibodies, ROR1 proteins and regeneration buffer (10 mM glycine HCl pH 1.5) were added to 96-well plates (Greiner). Rate constants for association and dissociation were measured using HIS1K sensor (Fortebio). The sensor surface was regenerated after each binding experiment with regeneration buffer. The traces were processed using Octet Data Analysis Software (version 11.0, Pall ForteBio, CA, USA).
# [10] = biological target: T2, human ROR1 on cells (HEK293T-hROR1, …); assay: flow cytometry, HEK293T-hROR1 cells
# Procedure: as §2
# [11] = biological target: T2, human ROR1 on cells (HEK293T-hROR1, …); assay: flow cytometry, PANC-1 cells; remark: listed apart in the source
# Procedure: as §2
# Binding activity of the variants to PANC-1 cells were tested using the same method described in example 5.1. The results were shown in FIGS. 7-8 and Table 11 and Table 12.
# T2 sequence (Q01973 30-937): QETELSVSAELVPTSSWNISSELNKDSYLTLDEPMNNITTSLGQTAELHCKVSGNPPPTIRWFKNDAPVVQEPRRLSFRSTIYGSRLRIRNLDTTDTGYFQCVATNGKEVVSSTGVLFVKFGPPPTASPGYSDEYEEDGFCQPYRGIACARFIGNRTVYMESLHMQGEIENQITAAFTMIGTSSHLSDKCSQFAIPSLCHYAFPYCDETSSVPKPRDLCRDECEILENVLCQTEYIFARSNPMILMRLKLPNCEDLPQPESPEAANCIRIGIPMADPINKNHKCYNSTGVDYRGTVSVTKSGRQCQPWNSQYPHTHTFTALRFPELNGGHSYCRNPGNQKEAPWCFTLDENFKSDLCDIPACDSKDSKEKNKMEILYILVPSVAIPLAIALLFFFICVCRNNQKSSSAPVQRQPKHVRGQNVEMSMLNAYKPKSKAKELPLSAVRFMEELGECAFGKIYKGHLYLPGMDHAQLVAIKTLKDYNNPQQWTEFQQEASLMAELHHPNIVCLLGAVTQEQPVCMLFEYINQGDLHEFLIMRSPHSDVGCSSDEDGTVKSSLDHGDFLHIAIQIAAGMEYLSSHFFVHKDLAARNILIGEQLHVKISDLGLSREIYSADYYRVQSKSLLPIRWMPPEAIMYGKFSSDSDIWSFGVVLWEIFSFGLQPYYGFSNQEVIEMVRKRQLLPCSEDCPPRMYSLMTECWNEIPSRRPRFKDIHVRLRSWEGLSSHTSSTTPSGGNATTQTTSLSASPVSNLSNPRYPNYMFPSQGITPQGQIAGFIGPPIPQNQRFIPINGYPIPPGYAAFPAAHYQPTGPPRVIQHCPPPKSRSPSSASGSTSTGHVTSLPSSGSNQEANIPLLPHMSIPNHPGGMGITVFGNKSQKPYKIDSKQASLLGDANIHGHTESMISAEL
# T4 sequence (Q01974 34-403): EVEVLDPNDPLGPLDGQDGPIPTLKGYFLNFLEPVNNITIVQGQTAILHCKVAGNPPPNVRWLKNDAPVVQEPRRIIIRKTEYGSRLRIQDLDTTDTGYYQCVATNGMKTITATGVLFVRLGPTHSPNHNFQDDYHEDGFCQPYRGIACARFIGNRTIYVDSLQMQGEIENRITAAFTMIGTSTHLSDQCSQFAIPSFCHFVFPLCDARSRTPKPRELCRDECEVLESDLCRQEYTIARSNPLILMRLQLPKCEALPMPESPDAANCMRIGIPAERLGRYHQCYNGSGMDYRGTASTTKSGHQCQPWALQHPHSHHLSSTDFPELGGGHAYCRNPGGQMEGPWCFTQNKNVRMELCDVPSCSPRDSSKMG
# T3 sequence (Q01973 30-406): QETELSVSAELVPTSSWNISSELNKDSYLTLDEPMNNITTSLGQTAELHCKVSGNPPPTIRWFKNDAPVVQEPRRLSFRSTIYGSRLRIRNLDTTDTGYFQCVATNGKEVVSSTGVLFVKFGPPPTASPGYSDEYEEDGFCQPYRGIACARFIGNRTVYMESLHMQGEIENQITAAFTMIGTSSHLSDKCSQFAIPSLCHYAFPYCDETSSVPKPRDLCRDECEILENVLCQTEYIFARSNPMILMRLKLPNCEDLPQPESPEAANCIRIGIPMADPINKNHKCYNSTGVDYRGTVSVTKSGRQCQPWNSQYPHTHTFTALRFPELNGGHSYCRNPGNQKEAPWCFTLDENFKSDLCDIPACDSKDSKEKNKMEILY
binder,measurement,setting,value
"PR005337 (antibody, human IgG1, V domains shown, HCAb (heavy chain-only, human IgG1 Fc), no light chain) VH: EVQLVESGGGLVKPGGSLRLSCAASGFIFSDYYMSWIRQAPGKGLEWVSYISSSGSTIHYADSVKGRFTVSRDNAKNSLYLQMNSLRTEDTAVYYCARDPPTSNSDWVSLHFDHWGQGTLVTVSS",Max,[1],31100
same,EC50 (read off the curve),[2],~20 nM
same,EC50 (read off the curve),[3],~20 nM
same,Max,[4],14700
"PR303199 (antibody, human IgG1, V domains shown, HCAb (heavy chain-only, human IgG1 Fc), no light chain) VH: EVQLVESGGGLVKPGGSLRLSCAASGFTFSDYYMSWIRQAPGKGLEWIAYISSSGSTIYYADSVKGRFTISRDNAKNSLYLQMNSLRAEDTAIYYCAREYYGSENYDHFDYWGQGTLVTVSS",EC50,[5],0.006 µg/mL
same,EC50,[6],6.79 µg/mL
same,MAX(MFI),[6],408000 MFI
same,binding result,[7],no binding (tested: about 15 µg/ml)
same,EC50,[8],1.43 µg/mL
same,MAX(MFI),[8],6.85e+06 MFI
same,Kd,[9],14.1 nM
same,koff,[9],0.00173 s⁻¹
same,kon,[9],123000 M⁻¹ s⁻¹
same,EC50,[10],0.191 µg/mL
same,MAX(MFI),[10],1.53e+07 MFI
same,EC50,[4],11.3 µg/mL
same,MAX(MFI),[4],462000 MFI
"PR005350 (antibody, human IgG1, V domains shown, HCAb (heavy chain-only, human IgG1 Fc), no light chain) VH: EVQLVESGGGLVKPGGSLRLSCAASGFTLSDSQMSWIRQAPGKGVEWVSYISSSGNTIYYGDSVKGRFTISRDNAKNSLFLQMNSLRAEDTAVYYCARVPPSSSNWYEDFDIWGQGTLVTVSS",Max,[1],14400
same,Max,[4],4250
"PR005341 (antibody, human IgG1, V domains shown, HCAb (heavy chain-only, human IgG1 Fc), no light chain) VH: EVQLVESGGGLVKPGGSLRLSCVASGFTFSDYYMSWIRQAPGKGLEWISYISSSGSSIYYAESVKGRFTISRDNAKNSLYLQMNRLRAEDTALYYCARTPPSSDNWYEDFDYWGQGALVTVSS",Max,[1],32900
same,EC50 (read off the curve),[2],~2 nM
same,EC50 (read off the curve),[3],~3 nM
same,Max,[4],16500
"PR005343 (antibody, human IgG1, V domains shown, HCAb (heavy chain-only, human IgG1 Fc), no light chain) VH: EVQLVESGGGLVKPGGSLRLSCVASGFTFSDYYMSWIRQAPGKGMEWISYISSSGSTKNYANSVKGRFTISRDNAKNSLYLQMNSLRAEDTAAYYCARVPPYNASWYEDFDYWGQGTLVTVSS",Max,[1],34100
same,EC50 (read off the curve),[2],~2 nM
same,EC50 (read off the curve),[3],~4 nM
same,Max,[4],18300
"PR005347 (antibody, human IgG1, V domains shown, HCAb (heavy chain-only, human IgG1 Fc), no light chain) VH: EVQLVESGGGLVKPGGSLRLSCVTSGFTFSDYYMSWIRQAPGKGMEWISYISTTGSTKNYANSVKGRFTISRDNAKSSLYLQMNSLRAEDTAAYYCARVPPSNASWYEDFDYWGQGTLVTVSS",Max,[1],32700
same,EC50 (read off the curve),[2],~8 nM
same,EC50 (read off the curve),[3],~10 nM
same,Max,[4],16400
"PR005339 (antibody, human IgG1, V domains shown, HCAb (heavy chain-only, human IgG1 Fc), no light chain) VH: EVQLVESGGGLVKPGGSLKLSCAASGFTFSDYYMSWIRQAPGKGVEWISYISNNGSTIHYADSVKGRFTISRDNAKNSLYLQMNSLRAEDTAVYYCARDFNNGWYEDFDYWGQGTLVTVSS",Max,[1],34800
same,EC50 (read off the curve),[2],~2 nM
same,EC50 (read off the curve),[3],~4 nM
same,Max,[4],16200
"PR005342 (antibody, human IgG1, V domains shown, HCAb (heavy chain-only, human IgG1 Fc), no light chain) VH: EVQLVESGGGLVKPGGSLRLSCAASGFNFSDYYMSWIRQAPGKGLEWISYISNSSSTIYYADSVKGRFTISRDNAKNSLYLQMSRLRAEDTAMYYCARDTTNGWYEDFDYWGQGTLVTVSS",Max,[1],34500
same,EC50 (read off the curve),[2],~4 nM
same,EC50 (read off the curve),[3],~7 nM
same,Max,[4],16700
"PR303155 (antibody, human IgG1, V domains shown, HCAb (heavy chain-only, human IgG1 Fc), no light chain) VH: EVQLVESGGGLVKPGGSLRLSCAASGFTLSDYYMSWIRQAPGKGLEWISYISSNGSTIYYADSVKGRFTISRDNARNSLYLQMNSLRAEDTALYYCARDVSSGWYEDFDYWGQGTLVTVSS",EC50,[5],0.002 µg/mL
same,EC50,[6],1.32 µg/mL
same,MAX(MFI),[6],791000 MFI
same,binding result,[7],no binding (tested: about 15 µg/ml)
same,EC50,[8],0.804 µg/mL
same,MAX(MFI),[8],1.1e+07 MFI
same,Kd,[9],6.83 nM
same,koff,[9],0.00336 s⁻¹
same,kon,[9],492000 M⁻¹ s⁻¹
same,EC50,[10],0.267 µg/mL
same,MAX(MFI),[10],1.49e+07 MFI
same,EC50,[4],1.07 µg/mL
same,MAX(MFI),[4],552000 MFI
"PR005346 (antibody, human IgG1, V domains shown, HCAb (heavy chain-only, human IgG1 Fc), no light chain) VH: EVQLVESGGGLVKPGGSLRLSCAASGFTLSDYYMSWIRQAPGKGLEWVSNISKNGFTIYYAESVKGRFTVSRDNAKNSLYLQMNSLRAEDTAIYYCARDSSGWYSEFDYWGQGTLVTVSS",Max,[1],26600
same,Max,[4],10200
"PR005345 (antibody, human IgG1, V domains shown, HCAb (heavy chain-only, human IgG1 Fc), no light chain) VH: EVQLVESGGGLVKPGGSLRLSCAASGFTFSDYYMSWIRQAPGKGLEWIAYISSSGSTIHYSDSVKGRFTISRDNAKNSLYLQMNSLRAEDTAVYYCARDTPSSSSDWVSLQFDYWGQGTPVTVSS",Max,[1],24600
same,Max,[4],9710
"PR005348 (antibody, human IgG1, V domains shown, HCAb (heavy chain-only, human IgG1 Fc), no light chain) VH: EVQLVESGGGLVKPGGSLRLSCAASGFTFSDYYMSWIRQTPGKGLEWVSYISRSGSTKYYADSVKGRFTISRDNAKNSLYLQMNSLRAEDTAVYYCARDAPSSNSDWVSLHFDHWGQGTLVTVSS",Max,[1],28000
same,Max,[4],10200
"PR007421 (antibody, V domains shown, bivalent form (HCAb) variant of PR005340, no light chain) VH: EVQLVESGGGLVKPGGSLRLSCAASGFTFSDFYMSWIRQAPGKGLEWISYIDSSGRPLAYADSVKGRFTISRDNAKNSLYLQMNSLRAEDTAIYYCARDMPSSSSDWVSLQFDYWGQGTLVTVSS",TOP,[11],86600
"PR303145 (antibody, human IgG1, V domains shown, HCAb (heavy chain-only, human IgG1 Fc), no light chain) VH: QVQLVESGGGLVKPGGSLRISCAASGFTFSNYNMSWIRQAPGKGVEWVSHISGSGRTIYYAESVKGRFTISRDNAKNSLYLQMNSLRAEDTAMYYCARDLSSGWYEDFDYWGQGTLVTVSS",EC50,[5],0.002 µg/mL
same,EC50,[6],0.93 µg/mL
same,MAX(MFI),[6],875000 MFI
same,binding result,[7],no binding (tested: about 15 µg/ml)
same,EC50,[8],0.474 µg/mL
same,MAX(MFI),[8],1.04e+07 MFI
same,Kd,[9],11.1 nM
same,koff,[9],0.0031 s⁻¹
same,kon,[9],278000 M⁻¹ s⁻¹
same,EC50,[10],0.158 µg/mL
same,MAX(MFI),[10],1.35e+07 MFI
same,EC50,[4],0.654 µg/mL
same,MAX(MFI),[4],653000 MFI
